In article PMC10397247:

Legend:
APC2811-AA = target: T1, APC2811-AA; assay: two-hybrid library CCmax; details: mean of both orientations;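 further: natural log of median RNA to DNA barcode read ratio; higher means stronger binding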
T1 chain: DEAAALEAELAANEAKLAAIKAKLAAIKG

APC5009-AA = target: T2, APC5009-AA; assay: two-hybrid library CCmax; details: mean of both orientations;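 further: natural log of median RNA to DNA barcode read ratio; higher means stronger binding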
T2 chain: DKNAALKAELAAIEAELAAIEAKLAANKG

APC542-AA = target: T3, APC542-AA; assay: two-hybrid library CCmax; details: mean of both orientations;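 further: natural log of median RNA to DNA barcode read ratio; higher means stronger binding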
T3 chain: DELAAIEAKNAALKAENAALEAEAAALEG

APC3881-AA = target: T4, APC3881-AA; assay: two-hybrid library CCmax; details: mean of both orientations;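 further: natural log of median RNA to DNA barcode read ratio; higher means stronger binding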
T4 chain: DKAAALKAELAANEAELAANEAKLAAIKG

APC2375-AA = target: T5, APC2375-AA; assay: two-hybrid library CCmax; details: mean of both orientations
T5 chain: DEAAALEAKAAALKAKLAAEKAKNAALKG

APC9182-AA = target: T6, APC9182-AA; assay: two-hybrid library CCmax; details: mean of both orientations
T6 chain: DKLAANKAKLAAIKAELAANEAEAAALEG

APC2474-AA = target: T7, APC2474-AA; assay: two-hybrid library CCmax; details: mean of both orientations
T7 chain: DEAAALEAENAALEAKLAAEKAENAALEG

APC2257-AA = target: T8, APC2257-AA; assay: two-hybrid library CCmax
T8 chain: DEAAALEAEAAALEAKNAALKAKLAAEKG

APC5531-AA = target: T9, APC5531-AA; assay: two-hybrid library CCmax; details: mean of both orientations
T9 chain: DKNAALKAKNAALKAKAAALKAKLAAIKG

APC6088-AA = target: T10, APC6088-AA; assay: two-hybrid library CCmax; details: mean of both orientations
T10 chain: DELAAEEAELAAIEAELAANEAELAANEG

APC4336-AA = target: T11, APC4336-AA; assay: two-hybrid library CCmax; details: mean of both orientations
T11 chain: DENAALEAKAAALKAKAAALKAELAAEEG

APC7524-AA = target: T12, APC7524-AA; assay: two-hybrid library CCmax; details: mean of both orientations
T12 chain: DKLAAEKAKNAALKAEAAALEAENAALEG

APC2981-AA = target: T13, APC2981-AA; assay: two-hybrid library CCmax; details: mean of both orientations
T13 chain: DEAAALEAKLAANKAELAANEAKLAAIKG

APC8516-AA = target: T14, APC8516-AA; assay: two-hybrid library CCmax; details: mean of both orientations
T14 chain: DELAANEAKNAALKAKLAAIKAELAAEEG

APC2543-AA = target: T15, APC2543-AA; assay: two-hybrid library CCmax; details: mean of both orientations
T15 chain: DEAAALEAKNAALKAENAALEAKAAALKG

APC2724-AA = target: T16, APC2724-AA; assay: two-hybrid library CCmax; details: mean of both orientations
T16 chain: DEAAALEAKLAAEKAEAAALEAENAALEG

APC8401-AA = target: T17, APC8401-AA; assay: two-hybrid library CCmax; details: mean of both orientations
T17 chain: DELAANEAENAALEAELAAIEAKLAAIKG

APC9291-AA = target: T18, APC9291-AA; assay: two-hybrid library CCmax; details: mean of both orientations
T18 chain: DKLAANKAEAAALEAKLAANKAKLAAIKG

APC3354-AA = target: T19, APC3354-AA; assay: two-hybrid library CCmax; details: mean of both orientations
T19 chain: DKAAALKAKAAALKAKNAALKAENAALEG

APC2556-AA = target: T20, APC2556-AA; assay: two-hybrid library CCmax; details: mean of both orientations
T20 chain: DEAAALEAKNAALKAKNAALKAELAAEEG

APC4100-AA = target: T21, APC4100-AA; assay: two-hybrid library CCmax; details: mean of both orientations
T21 chain: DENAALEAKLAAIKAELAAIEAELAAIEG

APC9141-AA = target: T22, APC9141-AA; assay: two-hybrid library CCmax; details: mean of both orientations
T22 chain: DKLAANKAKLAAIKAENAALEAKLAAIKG

APC3323-AA = target: T23, APC3323-AA; assay: two-hybrid library CCmax; details: mean of both orientations
T23 chain: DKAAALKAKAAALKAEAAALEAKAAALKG

APC3265-AA = target: T24, APC3265-AA; assay: two-hybrid library CCmax
T24 chain: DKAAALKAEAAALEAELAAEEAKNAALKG

APC9806-AA = target: T25, APC9806-AA; assay: two-hybrid library CCmax; details: mean of both orientations
T25 chain: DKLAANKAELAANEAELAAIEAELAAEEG

4H363-bH = target: T26, 4H363-bH; assay: two-hybrid library CCNG1
T26 chain: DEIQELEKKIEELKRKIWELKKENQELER

4H3907-bH = target: T27, 4H3907-bH; assay: two-hybrid library CCNG1
T27 chain: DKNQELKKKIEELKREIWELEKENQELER

4H470-bH = target: T28, 4H470-bH; assay: two-hybrid library CCNG1
T28 chain: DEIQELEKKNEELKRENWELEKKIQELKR

4H3961-bH = target: T29, 4H3961-bH; assay: two-hybrid library CCNG1
T29 chain: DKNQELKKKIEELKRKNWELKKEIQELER

4H344-bH = target: T30, 4H344-bH; assay: two-hybrid library CCNG1
T30 chain: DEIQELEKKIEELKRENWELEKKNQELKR

O16-bP = target: T31, O16-bP; assay: two-hybrid library CCNG1
T31 chain: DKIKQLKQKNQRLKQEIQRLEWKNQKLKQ

O3-bP = target: T32, O3-bP; assay: two-hybrid library CCNG1
T32 chain: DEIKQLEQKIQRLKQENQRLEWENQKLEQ

O5-bP = target: T33, O5-bP; assay: two-hybrid library CCNG1
T33 chain: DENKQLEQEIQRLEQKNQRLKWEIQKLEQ

O13-bP = target: T34, O13-bP; assay: two-hybrid library CCNG1
T34 chain: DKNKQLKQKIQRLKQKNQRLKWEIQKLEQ

O14-bP = target: T35, O14-bP; assay: two-hybrid library CCNG1
T35 chain: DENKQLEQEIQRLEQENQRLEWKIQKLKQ

O6-bP = target: T36, O6-bP; assay: two-hybrid library CCNG1
T36 chain: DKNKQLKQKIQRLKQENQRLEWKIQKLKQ

O4-bP = target: T37, O4-bP; assay: two-hybrid library CCNG1
T37 chain: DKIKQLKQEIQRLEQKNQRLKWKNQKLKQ

O9-bP = target: T38, O9-bP; assay: two-hybrid library CCNG1
T38 chain: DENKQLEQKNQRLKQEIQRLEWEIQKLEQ

O7-bP = target: T39, O7-bP; assay: two-hybrid library CCNG1
T39 chain: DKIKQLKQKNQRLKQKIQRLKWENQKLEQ

O2-bP = target: T40, O2-bP; assay: two-hybrid library CCNG1
T40 chain: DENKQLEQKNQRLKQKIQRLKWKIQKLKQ

O8-bP = target: T41, O8-bP; assay: two-hybrid library CCNG1
T41 chain: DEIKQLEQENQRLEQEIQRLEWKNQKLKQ

O15-bP = target: T42, O15-bP; assay: two-hybrid library CCNG1
T42 chain: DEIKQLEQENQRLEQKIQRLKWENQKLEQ

Question: What does the source list for DEAAALEAEAAALEAKNAALKAKLAAEKG [APC2257-AA]?
Answer: interaction score (APC2811-AA): 1.49; interaction score (APC5009-AA): -1.07; interaction score (APC542-AA): -1.54; interaction score (APC3881-AA): -1.31; interaction score (APC2375-AA): -1.42; interaction score (APC9182-AA): -1.86; interaction score (APC2474-AA): -1.46; interaction score (APC2257-AA): -1.12; interaction score (APC5531-AA): -1.97; interaction score (APC6088-AA): -1.24; interaction score (APC4336-AA): -1.71; interaction score (APC7524-AA): -1.59; interaction score (APC2981-AA): -1.18; interaction score (APC8516-AA): -1.64; interaction score (APC2543-AA): -1.02; interaction score (APC2724-AA): -1.47; interaction score (APC8401-AA): -1.32; interaction score (APC9291-AA): -1.61; interaction score (APC3354-AA): -1.45; interaction score (APC2556-AA): -1.99; interaction score (APC4100-AA): -1.56; interaction score (APC9141-AA): -1.37; interaction score (APC3323-AA): -1.58; interaction score (APC3265-AA): -1.43; interaction score (APC9806-AA): -1.79

Question: With DEIQELEKKIEELKRENWELEKKNQELKR [4H344-bH] as the binder, how does the interaction score (4H363-bH) read?
Answer: 0.49

Question: And the interaction score (4H3907-bH)?
Answer: 0.791

Question: And the interaction score (4H470-bH)?
Answer: 0.944

Question: What about the interaction score (4H3961-bH) of the same binder?
Answer: 0.837

Question: And the interaction score (4H344-bH)?
Answer: 0.843

Question: How did the interaction score (O16-bP) turn out when DKNKQLKQKIQRLKQKNQRLKWEIQKLEQ [O13-bP] was run?
Answer: -1.17

Question: And the interaction score (O3-bP)?
Answer: -1.76

Question: And the interaction score (O5-bP)?
Answer: -0.814

Question: And the interaction score (O13-bP)?
Answer: -2.25

Question: And the interaction score (O14-bP)?
Answer: 1.35

Question: And the interaction score (O6-bP)?
Answer: -0.094

Question: And the interaction score (O4-bP)?
Answer: -0.851

Question: What about the interaction score (O9-bP) of the same binder?
Answer: -1.05

Question: And the interaction score (O7-bP)?
Answer: -1.19

Question: And the interaction score (O2-bP)?
Answer: -1.3

Question: What about the interaction score (O8-bP) of the same binder?
Answer: -0.609

Question: What about the interaction score (O15-bP) of the same binder?
Answer: -0.599
